Where a chain is given by its changes, count along the chain named. Like-named read-outs stand apart in the source and are kept apart here.
How the values were obtained:
LAMP1::histag = target: T1, LAMP1::histag (human, UniProt P11279 29-382); assay: ELISA on secreted human LAMP1
T1 construct: extracellular domain without signal peptide, C-terminal 6 His tag, made in HEK293 cells; also called recombinant human LAMP1; human LAMP1 (29-382)
T1 sequence: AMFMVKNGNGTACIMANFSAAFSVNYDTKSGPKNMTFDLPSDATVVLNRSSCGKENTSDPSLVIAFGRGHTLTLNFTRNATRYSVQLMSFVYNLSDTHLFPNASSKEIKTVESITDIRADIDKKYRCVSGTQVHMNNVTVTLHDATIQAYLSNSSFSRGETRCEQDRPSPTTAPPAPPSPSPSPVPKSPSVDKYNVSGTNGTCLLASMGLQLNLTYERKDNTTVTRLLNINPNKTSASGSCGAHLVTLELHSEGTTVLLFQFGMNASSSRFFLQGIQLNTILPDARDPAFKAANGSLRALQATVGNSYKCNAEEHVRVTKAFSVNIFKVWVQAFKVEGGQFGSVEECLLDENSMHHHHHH

mLAMP1::histag = target: T2, mLAMP1::histag (mouse, UniProt P11438 25-369); assay: ELISA
T2 construct: also called mouse LAMP1 (25-369); Mouse LAMP1
T2 sequence: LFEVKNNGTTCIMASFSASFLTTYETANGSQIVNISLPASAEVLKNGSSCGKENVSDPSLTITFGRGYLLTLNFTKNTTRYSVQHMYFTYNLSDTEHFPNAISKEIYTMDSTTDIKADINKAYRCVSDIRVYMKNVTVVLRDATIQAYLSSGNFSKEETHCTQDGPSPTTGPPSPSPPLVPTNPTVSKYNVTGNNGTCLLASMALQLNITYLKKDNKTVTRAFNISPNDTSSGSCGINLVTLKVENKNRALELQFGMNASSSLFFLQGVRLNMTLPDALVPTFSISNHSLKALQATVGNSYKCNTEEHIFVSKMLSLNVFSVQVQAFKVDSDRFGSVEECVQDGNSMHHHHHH

[1] = target: T3, mLAMP1_L12_LAMP1_L34::histag (mouse/human hybrid); assay: ELISA
T3 construct: mouse LAMP1 (25-189) and human LAMP1 (196-382), His tag; also called Loop1-2: mLAMP1 Loop3-4: hLAMP1
T3 chain: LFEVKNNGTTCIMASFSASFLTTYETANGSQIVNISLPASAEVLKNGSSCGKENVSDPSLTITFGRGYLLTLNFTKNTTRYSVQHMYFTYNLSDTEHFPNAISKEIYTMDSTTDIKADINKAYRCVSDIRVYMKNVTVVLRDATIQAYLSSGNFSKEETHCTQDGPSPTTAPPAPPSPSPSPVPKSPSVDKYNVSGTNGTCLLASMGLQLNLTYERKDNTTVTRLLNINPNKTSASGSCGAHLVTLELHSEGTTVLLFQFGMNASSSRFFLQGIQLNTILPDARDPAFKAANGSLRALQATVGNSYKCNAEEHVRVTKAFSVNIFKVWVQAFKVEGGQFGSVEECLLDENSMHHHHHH

[2] = target: T4, human LAMP1 at the cell surface (human, UniProt P11279 29-417); assay: flow cytometry, HCT116 huLAMP1 clone 8
T4 construct: native on tumour cells (PDX, Colo205, SW480, LS174T) or from the cloned CDS NM_005561.3 in HEK293 and HCT116; signal peptide 1-28 left out; also called huLAMP1; full length human LAMP1
T4 sequence: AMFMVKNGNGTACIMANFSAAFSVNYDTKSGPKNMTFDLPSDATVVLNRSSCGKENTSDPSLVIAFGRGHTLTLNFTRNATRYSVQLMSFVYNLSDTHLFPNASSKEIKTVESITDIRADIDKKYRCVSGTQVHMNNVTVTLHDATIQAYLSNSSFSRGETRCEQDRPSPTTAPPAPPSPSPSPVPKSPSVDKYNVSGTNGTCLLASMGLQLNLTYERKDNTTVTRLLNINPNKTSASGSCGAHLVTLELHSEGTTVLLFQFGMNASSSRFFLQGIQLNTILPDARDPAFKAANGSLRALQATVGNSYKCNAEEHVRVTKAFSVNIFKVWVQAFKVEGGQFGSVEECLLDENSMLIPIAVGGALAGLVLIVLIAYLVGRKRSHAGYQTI
Procedure: 100 μL/well of goat anti-human IgG conjugated with Alexa488 (Invitrogen; # A11013) was added for 1 h at 4° C. and washed two times with PBS 1% BSA. The antibody binding was evaluated after centrifugation and resuspension of cells in 100 ul fixing solution (paraformaldehyde at 4% in PBS). Samples were read using Galaxy® Flow Cytometry System (Partec).

[3] = target: T4, human LAMP1 at the cell surface; assay: cell-based or functional assay
hLAMP1_ΔGYQTI = target: T5, hLAMP1_ΔGYQTI (human, UniProt P11279 29-412); assay: flow cytometry, transfected 293-F cells
T5 construct: also called pXL5626
T5 sequence: T4 sequence with G385A, Y386A, Q387A, T388A, I389A

LAMP1_mL1_hL234_ΔGYQTI = target: T6, LAMP1_mL1_hL234_ΔGYQTI (mouse; human); assay: flow cytometry, transfected 293-F cells
T6 construct: on cells; also called pXL5668
T6 chain: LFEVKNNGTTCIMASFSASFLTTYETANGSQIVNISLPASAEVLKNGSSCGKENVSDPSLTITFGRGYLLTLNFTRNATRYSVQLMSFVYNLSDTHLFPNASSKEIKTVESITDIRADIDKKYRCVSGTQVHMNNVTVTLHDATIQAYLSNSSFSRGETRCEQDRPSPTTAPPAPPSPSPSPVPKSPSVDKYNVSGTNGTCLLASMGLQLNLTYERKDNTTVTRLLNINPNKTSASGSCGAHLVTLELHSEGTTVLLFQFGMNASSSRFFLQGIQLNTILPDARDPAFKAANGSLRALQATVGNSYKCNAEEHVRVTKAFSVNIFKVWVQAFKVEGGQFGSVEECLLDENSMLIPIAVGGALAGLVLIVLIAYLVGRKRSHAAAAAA

[4] = target: T7, mLAMP1_L1_LAMP1_L234::histag (mouse/human hybrid); assay: ELISA
T7 construct: also called Loop1: mLAMP1 Loop2-4: hLAMP1
T7 chain: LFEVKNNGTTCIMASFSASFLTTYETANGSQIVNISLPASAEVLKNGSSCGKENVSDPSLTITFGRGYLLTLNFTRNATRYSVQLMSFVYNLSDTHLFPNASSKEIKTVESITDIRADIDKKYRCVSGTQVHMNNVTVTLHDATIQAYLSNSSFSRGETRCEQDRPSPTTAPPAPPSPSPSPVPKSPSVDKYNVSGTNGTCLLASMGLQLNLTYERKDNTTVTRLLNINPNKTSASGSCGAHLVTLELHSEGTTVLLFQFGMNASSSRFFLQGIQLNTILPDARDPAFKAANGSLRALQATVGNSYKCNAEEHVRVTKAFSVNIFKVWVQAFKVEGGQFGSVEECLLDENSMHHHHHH

[5] = target: T4, human LAMP1 at the cell surface; assay: cell-based or functional assay; remark: listed apart in the source
[6] = target: T4, human LAMP1 at the cell surface; assay: flow cytometry, HCT116 huLAMP1 clone 8; remark: listed apart in the source
Procedure: HCT116 cells were infected by a lentiviral vector allowing stable integration of the human or the cynomolgus LAMP1 CDS in genomic DNA of cells. Individual clones with different densities of human or cynomolgus LAMP1 cell surface localization were derived from a pool of HCT116 infected cells. […] 100 μL/well of goat anti-human IgG conjugated with Alexa488 (Invitrogen; # A11013) was added for 1 h at 4° C. and washed two times with PBS 1% BSA. The antibody binding was evaluated after centrifugation and resuspension of cells in 100 μl fixing solution (paraformaldehyde at 4% in PBS). Samples were read using Galaxy® Flow Cytometry System (Partec). EC50 values were estimated using BIOST@T-SPEED software.

[7] = target: T8, cynomolgus monkey LAMP1 at the cell surface (cynomolgus monkey, UniProt P11279 29-417 (human entry)); assay: flow cytometry, HEK293 cynoLAMP1 clone 44
T8 construct: also called cynoLAMP1; cynomolgus LAMP1
T8 chain: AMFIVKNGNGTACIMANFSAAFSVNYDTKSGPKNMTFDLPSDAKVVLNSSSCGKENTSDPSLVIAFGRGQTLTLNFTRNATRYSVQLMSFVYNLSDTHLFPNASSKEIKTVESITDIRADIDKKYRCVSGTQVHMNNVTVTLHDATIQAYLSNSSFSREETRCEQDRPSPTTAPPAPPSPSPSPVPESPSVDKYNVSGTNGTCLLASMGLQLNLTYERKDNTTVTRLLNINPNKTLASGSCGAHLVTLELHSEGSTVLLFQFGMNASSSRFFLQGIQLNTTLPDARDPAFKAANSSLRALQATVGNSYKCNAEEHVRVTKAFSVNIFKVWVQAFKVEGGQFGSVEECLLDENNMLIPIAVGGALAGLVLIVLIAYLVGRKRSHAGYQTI

[8] = target: T8, cynomolgus monkey LAMP1 at the cell …; assay: flow cytometry

B1: chMAb1 (antibody, human IgG1, kappa)
heavy: not shown
light: DIQMTQSPPSLSASLGGKVTITCKASQDIDRYMAWYQDKPGKGPRLLIHDTSTLQPGIPSRFSGSGSGRDYSFSISNLEPEDIATYYCLQYDNLWTFGGGTKLEIKRTVAAPSVFIFPPSDEQLKSGTASVVCLLNNFYPREAKVQWKVDNALQSGNSQESVTEQDSKDSTYSLSSTLTLSKADYEKHKVYACEVTHQGLSSPVTKSFNRGEC
notes: chimeric, human IgG1, Ckappa; also called MAb1 (chimeric)
In the case of B1, the EC50 (LAMP1::histag) is reported as 0.09 nM, the binding result (mLAMP1::histag) is reported as “no binding” and the binding result [1] is reported as “no binding”. The EC50 [2] was 6 nM, the “ADCC EC50, NK batch 67125626389” value [3] was 0.05 nM and the “ADCC EC50, NK batch 67125903091” value [3] was 0.76 nM. For the same binder, the “ADCC EC50, NK batch 67130127373” value [3] was 0.009 nM, the “ADCC EC50, NK batch 67130494552” value [3] was 0.2 nM and the “ADCC EC50, NK batch 67130496259” value [3] was 0.6 nM.

B2: chMAb3 (antibody, human IgG1, kappa, V domains shown)
VH: QIQLVQSGPELKKPGETVKISCKASGYIFTNYGMNWVKQAPGKGLKWMGWINTYTGESRYADDFKGRFALSLETSASTAYLQINNLENEDMATYFCAREDYYGNSPWFFDVWGAGTTVTVSS
VL: DIQMTQTTSSLSASLGDRVTISCNASQGINKYLNWYQQKPDGTVKLLIYYTSTLHSGVPSRFSGSGSGTDYSLTINNLEPEDIATYYCQQYTKLPFTFGSGTKLEIKR
notes: chimeric, human IgG1, Ckappa
With B2 the mean fluorescence (hLAMP1_ΔGYQTI) was 640, the binding result (LAMP1_mL1_hL234_ΔGYQTI) was “no binding” and the binding result (mLAMP1::histag) was “no binding”. B2: no binding [4]; no binding [1].

B3: DM4-SPDB-huMAb1_1 (antibody, human IgG1, kappa)
heavy: not shown
light: DIQMTQSPSSLSASVGDRVTITCKASQDIDRYMAWYQDKPGKAPRLLIHDTSTLQSGVPSRFSGSGSGRDYTLTISNLEPEDFATYYCLQYDNLWTFGGGTKVEIKRTVAAPSVFIFPPSDEQLKSGTASVVCLLNNFYPREAKVQWKVDNALQSGNSQESVTEQDSKDSTYSLSSTLTLSKADYEKHKVYACEVTHQGLSSPVTKSFNRGEC
modifications: DM4 linked through SPDB, average DAR 3.4 per antibody; sites not stated
notes: antibody drug conjugate of huMAb1_1
B3 was tested, and the “cytotoxicity IC50, HCT116 huLAMP1 clone 8” value [5] was 0.1 nM, the EC50 [6] was 12.7 nM and the EC50 [7] was 33.5 nM. The “Ratio of EC50s (cynoLAMP1 against huLAMP1)” value [8] was 2.65.

Reference: patent publication US20180142032A1 (Sanofi, published 2018)
